Experimental data taken from patent US20130344070A1 (SORRENTO THERAPEUTICS, published 2013).

How the values were obtained:
[1] = molecular target: T1, human CCR2 (CC-Chemokine Receptor 2) (human, UniProt P41597 1-374); assay: cell-based or functional assay
murine CCR2 [2] = molecular target: T2, murine CCR2 (murine, UniProt P51683 1-373); assay: cell-based or functional assay
[3] = molecular target: T1, human CCR2 (CC-Chemokine Receptor 2); assay: cell-based or functional assay; remark: listed apart in the source
[4] = molecular target: T1, human CCR2 (CC-Chemokine Receptor 2); assay: cell-based or functional assay; remark: listed apart in the source
[5] = molecular target: T1, human CCR2 (CC-Chemokine Receptor 2); assay: cell-based or functional assay; remark: listed apart in the source
murine CCR2 [6] = molecular target: T2, murine CCR2; assay: cell-based or functional assay; remark: listed apart in the source
[7] = molecular target: T1, human CCR2 (CC-Chemokine Receptor 2); assay: flow cytometry on CHO-CCR2 cells (FIG. 1)
Method: (§1) The data in FIG. 1 illustrates in vitro data for cellular binding EC₅₀ measurements. […] In this example, CHO-CCR2 cells were lifted from culture flasks using non-enzymatic Cell Dissociation Buffer—PBS based (Life Technologies #13151-014). Cells were resuspended in FACS Buffer (2% Fetal Bovine Serum in PBS) at 1×10⁶ cells/ml and 100 μl (1×10⁵ cells) were aliquoted into the wells of a 96-well plate. Plated cells were spun down and the supernatant discarded. Cells were resuspended in 50 μl FACS Buffer containing the indicated concentrations of CCR2 D1 IgG in triplicate (FIG. 1). Plates were incubated for 1 hr at 4° C., then washed 1× with FACS Buffer. Cells were resuspended in 50 μl goat anti-human IgG (γ-chain specific)-PE conjugated secondary antibody (Southern Biotech #2040-09) diluted 1:500 in FACS Buffer. Cells were further incubated for 30 min at 4° C. and then washed 1× with FACS Buffer. The cells were resuspended in a final volume of 25 μl FACS Buffer and analyzed using the Intellicyt Flow Cytometer. Median fluorescence in the FL-2H channel was determined using FlowJo software and EC₅₀ value was determined by plotting the data in GraphPad Prism and analyzing using a variable slope non-linear regression.

murine CCR2 [8] = molecular target: T2, murine CCR2; assay: flow cytometry on murine CCR2-expressing cells (FIG. 2)
[9] = molecular target: T1, human CCR2 (CC-Chemokine Receptor 2); assay: flow cytometry on CHO-huCCR2 cells, PE anti-human IgG
Method: as §1

murine CCR2 [10] = molecular target: T2, murine CCR2; assay: flow cytometry on WEHI 274.1 cells (murine CCR2), PE anti-human IgG
Method: In this example, WEHI 274.1 cells were resuspended in FACS Buffer (2% Fetal Bovine Serum in PBS) at 1×10⁶ cells and […] of cell suspension was aliquoted into the wells of a 96-well plate. Plated cells were spun down and the supernatant discarded. Cells were resuspended in 30 μl FACS Buffer containing serially diluted anti-CCR2 IgGs in triplicate. Plates were incubated for 1 hr at 4° C., then washed 2× with FACS Buffer. Cells were resuspended in 50 μl goat anti-human IgG (γ-chain specific)-PE conjugated secondary antibody (Southern Biotech #2040-09) diluted 1:500 in FACS Buffer, incubated for 30 min at 4° C. and then washed 1× with FACS Buffer. The cells were resuspended in a final volume of 30 μl FACS Buffer and analyzed using the Intellicyt Flow Cytometer. Median fluorescence in the FL-2H channel was determined using FlowJo software and EC₅₀ values were determined by plotting the data in GraphPad Prism and analyzed using a variable slope non-linear regression.

T2 sequence (P51683 whole entry): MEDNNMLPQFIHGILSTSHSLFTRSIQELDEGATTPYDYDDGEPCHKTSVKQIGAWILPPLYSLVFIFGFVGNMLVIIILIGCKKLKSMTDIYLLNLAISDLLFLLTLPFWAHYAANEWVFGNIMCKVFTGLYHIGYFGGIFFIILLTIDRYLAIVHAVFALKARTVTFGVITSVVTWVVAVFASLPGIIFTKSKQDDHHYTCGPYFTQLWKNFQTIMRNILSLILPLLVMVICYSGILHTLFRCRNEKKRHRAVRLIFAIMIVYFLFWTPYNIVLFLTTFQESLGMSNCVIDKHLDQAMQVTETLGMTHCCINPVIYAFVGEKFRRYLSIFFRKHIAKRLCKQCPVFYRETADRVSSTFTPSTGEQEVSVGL
T1 sequence (P41597 whole entry): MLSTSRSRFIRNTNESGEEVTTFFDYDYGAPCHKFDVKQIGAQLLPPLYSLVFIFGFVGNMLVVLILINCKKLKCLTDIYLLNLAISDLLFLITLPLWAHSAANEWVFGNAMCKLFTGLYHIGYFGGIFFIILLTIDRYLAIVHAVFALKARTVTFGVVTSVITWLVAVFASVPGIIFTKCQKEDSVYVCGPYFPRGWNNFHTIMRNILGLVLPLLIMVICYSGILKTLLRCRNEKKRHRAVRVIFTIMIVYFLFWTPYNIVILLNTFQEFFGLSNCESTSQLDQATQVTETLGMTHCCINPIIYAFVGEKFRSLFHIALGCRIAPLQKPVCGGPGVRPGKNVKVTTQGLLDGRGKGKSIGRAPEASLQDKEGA

- IC50 of D1 on MCP-1 (1 nM) induced primary human monocyte migration, another donor [1]: 3.48 nM
- IC50 of D1 on MCP-1 (1 nM) induced primary human monocyte migration, first donor [1]: 1.02 nM
- IC50 of D1 on MCP-1 (3 nM) induced THP-1 cell migration [1]: 0.194 nM
- IC50 of D1 on MCP-1 (10 nM) induced THP-1 calcium mobilization [1]: 4.7 nM
- IC50 of D1 on MCP-1 (10 nM) induced primary human monocyte calcium mobilization [1]: 2.8 nM
- IC50 of D1 on mMCP-1 induced WEHI 274.1 cell migration (murine CCR2 [2]): 66 nM
- IC50 on MCP-1 induced THP-1 cell migration [3]: 0.168 nM
- IC50 on MCP-2 induced THP-1 cell migration [3]: 0.172 nM
- IC50 on MCP-3 induced THP-1 cell migration [3]: 0.854 nM
- IC50 on MCP-4 induced THP-1 cell migration [3]: 0.138 nM
- IC50 on mouse MCP-5 induced THP-1 cell migration [3]: 0.19 nM
- IC50 in chemotaxis assay using human THP-1 cells, ligand MCP-1 (3 nM) [4]: 0.17 nM
- IC50 in chemotaxis assay using human THP-1 cells, ligand MCP-2 (6.7 nM) [4]: 0.17 nM
- IC50 in chemotaxis assay using human THP-1 cells, ligand MCP-3 (1.1 nM) [4]: 0.11 nM
- IC50 in chemotaxis assay using human THP-1 cells, ligand MCP-4 (35 nM) [4]: 0.14 nM
- IC50 in chemotaxis assay using human THP-1 cells, ligand MCP-5 (0.65 nM) [4]: 0.19 nM
- IC50 in calcium flux assay using human THP-1 cells, ligand MCP-1 (2.5 nM) [5]: 0.18 nM
- IC50 in calcium flux assay using human THP-1 cells, ligand MCP-3 (22 nM) [5]: 0.19 nM
- IC50 in calcium flux assay using human THP-1 cells, ligand MCP-5 (0.43 nM) [5]: 0.28 nM
- IC50 in chemotaxis assay using mouse WEHI cells, ligand mouse MCP-1 (0.7 nM) (murine CCR2 [6]): 0.062 nM
- EC50 [7]: 0.168 nM
- EC50 (murine CCR2 [8]): ~17 nM
- EC50 [9]: 0.17 nM
- EC50 (murine CCR2 [10]): 1.5 nM
B1: D1 (antibody, human IgG1, V domains shown)
VH: EVQLVQSGAEVKKPGASVKVSCKASGYTFTGYHMHWVRQAPGQGLEWMGWINPNSGVTKYAQKFQGRVTMTRDTSINTAYMELSRLRFDDTDVYYCATGGFGYWGEGTLVTVSS
VL: LPVLTQPPSVSKGLRQTATLTCTGNSNNVGNQGAAWLQQHQGQPPKLLSYRNHNRPSGVSERFSPSRSGDTSSLTITGLQPEDEADYYCLAWDSSLRAFVFGTGTKLTVL
notes: also called CCR2 D1 IgG; anti-CCR2 D1 antibody
